Assay results published in the NTF2 design screens of Basanta et al. (2020).

Assay: protease stability score; higher = more stable; yeast display proteolysis, trypsin and chymotrypsin;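 note: log10 excess protease needed over predicted unfolded state with 0 meaning unfolded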

Row | Sequence | protease stability score
1 | DEDKQHEFATRNVKAWETNDENQMRRLMDPNAKVRIGDKEYRGREEILRLLNEFKKRVDHVQVKSYDVHNGHVHINIVASVNGQRHEMHVKFQFHNGEIVKMQIDDS | 0.203
2 | DEDKQLHELFERLVEAIRNGDPKKYQDNADENAKIRVGDKEYTGREQLEKLVEDIRKDVDHLEVDFKRVKVEGDKATAIVKVRANFNGKNDDTMYQYQAKIHGDKIHVVNVQQS | 0.165
3 | DEDKQRKRAETAAHIVENNNPDEQNKLADKDVTMQVGETQVHGREDLKELMEEMREQFDHIRVRSFDAHGNKVRLRFHAEYNGVTLEFVIINNYHNGKVQSINLRVTNPEEFRKAQG | 0.122
4 | DEDKQRKTADEIQKVIKQGDEKKAEDLFDENAKLSIGDKFYRGKEDFKRWFRSLRDRIDHFQVKDLEVDGERAEFVVVFHVNGKNVEMVIEIHVHNGKVKHARVNPEDERKLNT | 1.05
5 | DEDKRAREAAETAIQALRTGDPDKMVKLMDPNARVRVGDKTVTGHEEIRRWMQTIQDQIDHADITVESLTVNNGRAELIFVANFDRNGRTERTRYNLEIDVRGDKVQAHQMDHG | 1.22
6 | DEDKRARKFADTMRKVLEKGNEEEFRDMMDKDVSFKYGDKEVRGREEAAKRLKDTVKRVDRVEVNIKSIHVQGDKVSIDMLIVNDHNGKHHHRRLVFYAKDDNGKLVVVKVTER | 1.86
7 | DEDKRKLVEDLIEAEERGDNERIKELADKDAEYIYGDKTVEGREEHAKEVKKKHDQQRVKITSMRINAHGDKIQVSIEYTVEDNGQPRRARVHIKFVIHNGRFQSMHIQDHR | -0.253
8 | DEDKTAEQVAETIQKIWEKGDPTKMEKLFDPNASINVGEKTVKGREKIFTEAKKLMKEADHVRVTVQHVEARGDHVIVRFTFTLHVNGKNRKHEVEINAEDKNGHLRARDIKMR | 0.351
9 | DEDKTMRELIRRLDKNLKEGDPSKAREQADKDARANIGEKRVTGRKRLDEEVKTLLDSYDHIRVHLKEVRVENGSAVARVDYHYDQNGQEKSKEVILHARFQGDRLTLEQMTMP | 0.043
10 | DEDKVAHDMMKEIQSIFERGDRDTWRRMFDPNAEMHVGDKRIHGREHFSRWAQRSVERVDHHEMHVRSVSVDNGTITVSAVEVENVNGHEDKRRFVVRANLEGDKVQWKRRSEQ | 0.096
11 | DEDKVERLKHMWKVVEEGDEDKLREQFDKDASVTVGDKVLTGRENLARHWKRIRDELRFSMTMEKVEVHNGVVDIRVTATEDNNGRPQHKVADVRVDMHNGRIKVLEVDETK | 0.154
12 | DEDKVKKIAEELWKAISNGDEERMKKLMRDDVRAQVGDTEVHGREHVVHQLATFAKQVDHLTMETYDIRGNHVTFRFQARVNGKRVQIDMVIHVSNGRIKELRIDPKQVKELES | 1.22
13 | DEDKVNEFMRHFLDVFETGNEKDVKKMADPNAKIEYGDKTLHGRENLRKVIADWRKRVDRIQIEHVDLQGNKARIIVVLNINGRNIRVDIDVNVHNGEIKSIRFEFTDPKTLQRATS | 0.649
14 | DEDKVRELVKKAFKAIVNGNEEEVRKLLDPNVKYKYVDKEFEGEEVAKFLVEMVRKLGAKVETEKTHIEGNTARATFVYKLGDQKVQTHAEVKYEGDKVKEVRVEMTDEDKKQLHRG | 1.17
15 | DEDKVRKFQEYIEAYRRGDEQKLLKLMDPNVHVEIGDRRYHGHEDMEKILHKEIREIRVDVKIQSIEVRNGHITAHLVMSVNVNGHPVQMQFTVVIEMTNGKIKSIKYRVSEEQKRRFDS | 0.49
16 | DEDLAKRFVTFIKIMLNGDPDKLEKMMDENATVNVGDRRLTGHETIAKDLHRLINESRVHIQLRDFDVRPGRVELEFEAERKHDGRPHTSRFIVIVKDHNGKMVKIVVKQTK | 1.02
17 | DEDLARRLAEEMVKKATHGDEDTVRELIDPNVKFRYGDKDVEGRENFATELAEDMRTADHVHLKQVTIRGDTVQIDMRMVFDGSEDRHDLRLRAHNGKVQEVTIDQG | -0.112
18 | DEDLDKQAQEFIHAMQEGDPQRLSEQMDPNARFHVGEKNIHGKEEVMRDFQRTVDQAEIEFKEYSVRAEPGRVRIKLHYVDNNDGRPHSKVQDMVIVFHNGKLVVIDVNDSQ | 0.236
19 | DEDLERIIRRFMTALETGDPEELKKQMDENVRVQVGDKVLNGREEAAKHWTKVRDDLRIKIDTFHVENNGNRIDLSVDAEAEHNGRPQRYTLHMKAQVHNGKIKNATFTREQ | 0.868
20 | DEDLERKAKKYIDALDTGDPDEVSKLVDPNVKFMYGDKTFHGRDQLRRIIQRISDQQRVHVDIKTFSAKGDKVEIKARIEVETDGRPRQFHAIYRMRVHNGKITHISVEMRQ | 1.23
21 | DEDLERKVKELMEVLKSGDESKWMEMVDPNARVQVGDTEIHGRENRREDLKRHKEDSRLDLKSYNVRVHNGQVEVHMSYTYEHNGQPRTSQATARFQLHNGRITEVNVNTTK | -0.309
22 | DEDLFRRLSELMHAVTNGDEEELVKQADKDARIQYGDKVFHGMDEAARELVRQQKEIRQSWEIKSWDHQGDKVRVTIKNSQDHDGRPHSNRIDVEVKQRNGKVTTARFQTHP | 0.148
23 | DEDLIELAKELMHALQEGDEKRLQDLIDPNASAQIGDHRVHGMDEVLSTLVEHQHNQRVRIDRMEADVHNGTARVRIDQQFEHNGNPDKKVLVYEMTANNGKLKHYKLDEDK | 0.268
24 | DEDLKHLFHTFQKVLEEGNREKLRRLADENVTVSYGDKRVHGMESFARQVKEERDEQRVVINIRKVDVSGDQVRVVADVEREHNGKPDRKNLVMEANAEGDKFREVKYTEHG | 0.151
25 | DEDLKKRFKRMLRNLQNNNEENAHELMDPNARWRYGDKVLHGHEQLIEEWKRIHDRMRVEYKSVEVTASGDKVVVEIVFTRHKNGSPDSDNTRWKAVYNNGKLKDMMVTEDG | 0.637

Row | Sequence | protease stability score
26 | DEDLKQQFDELVEIKKNGDEDRLVEQADENVKAQVGDKDVHGMKEIAHNIRHTVERIRVEIKSMEVDAQGNRVHVENDFVENNNGKPHRKVVDMKFIFHNGTLKSYTERDDK | -0.608
27 | DEDLLKQADRWVKNLTRGNFKDLQKLFPPDATVQYGDNHIHGMEKISHEWKKEQEEMRIRVDRVQNEHQGEKAVVDLHYKVTHNGKPEENVVILFIEKHNGHMIFMKIQKTG | 0.739
28 | DEDLLKQLHTYLRAHETGDRSRLRKLMDPNAEVRIGNHELHGREEILTQQVEEAHKITQYFEIDSVEVRPNSIKVKAHVSMNVNGQPFRTEVEYDVRIRNGRIQEITYRLPEEFLREVNR | -0.229
29 | DEDLLRKIKQLLRAFEDNNEDQLRKNADPNARFVYGDKHIHGMEEAMRHQVTRYKEIRIERQIDTMSVTNGRANVQFTVVENHNGRPDTFHVQVDIKAHNGRVHTIEYEIHK | 0.387
30 | DEDLLRRAEQFIKAELRNNPDRAKELADPNVKFNIGDKEIHGMDDFRRYLHKKVKNMKWRAKVTHMKVQGNHAKLHVKVTLDINGRPFDVTRDILIVFHNGKIRDVNVRVDPEDKKRQKE | 1.39
31 | DEDLMERLKTILDAQSNGNPDELRRMFDPNAKIDIGDKEYHGMENFASNQHKRVKHIEQKYQFKSISAEGDKLDVRLRAQQVVNGTPRKYEYNLTARMSNGKVKSMEVQIPEEVLKRLEK | -0.219
32 | DEDLMRKFVERVKTGDPKDLVDQLDENAHQVVGETRVHGRSQFEKLAKKLEEQVDHIKVRSVKQENGRVDMDVVVNVNGQNNRYVLRVDVHNGKIKHMEVEFTDEEDEKAYRKALG | 0.095
33 | DEDLMTQIVKRYIDAWREGDRDELMKLADENVHIQVGDQTYHGQEQWRELVKKHKDNADHMDVKSWNIRGEKVHVHYWARFNGVEIEDTVEIQYENGRIIDIQFDPDQQRKEDK | 0.676
34 | DEDLNDMAVRMAEILNEGNEDEYNKQIDPHARFVIGDKEYSGHEHFKKEIQRQNKEMRVTVNLHRWDATNGEMHLVIHYSWNVNGRPTTIHVHFRITARGDKFKQIDVHMDPDELRRVDS | 0.765
35 | DEDLQEFAERLLQVNRTGDEDQFRRNVDPNAKMVVGDKEYHGRDELARFFRHLREHARFELNVKSVSVEGDTVEIHFEARVDINGKPLTYEASMSMRVEGDRVKRITFRMDPDQRRKAHS | 1.11
36 | DEDLQKQAERFLHAVNTGNEEQIHRLVDKDARMQYGDRRVHGRERIATWYRQMKEEIRQDIEVRTVRVRNGRVEVDARVERHVNGRPIDNKFHMSIQIENGKVKSITAHLDPNVLQEIKR | 1.17
37 | DEDLRRQAETMVDNINTNNERELEKLFDPNVHVVVGDRRINGTEHLRDYWRRIRDHMRLEVNLRRISVHNGKISAHVDVVREHNGKPDEDTFRMSAVVRNGKFHKMRVEKDG | 1.37
38 | DEDLSRNFHQFIEALKQNDTDRMKELIDPNARMRYGDKQLHGRENILNYWKKLNDQARVDLDLKSVRNDENHIRYNYKMRVHVNGRPVEDTATAEIRATNGRIVDIYIDFDPEKLRQIES | 2.34
39 | DEDLTKRFRQLIKAQETGDPDKIKNQVDKDVHAHVGDKTVSGREKLATQIHRDVQHSHFKVHVDNVRNHGNKVEVDARMVMNINGRPVTFTVNMDFTFHDGTIHRIKMSISEEDKKKTDS | 0.793
40 | DEDLVERVQDLLEAERENDEDTVSKMVDPNVKFSYGNRELHGREQWTKHVAEKQKQMRIQIDIDSYSVQGNHATFTAKITVHINGKPMSDTVTFQIVFSNGKVEEVRMRIDPRFQREVES | 0.016
41 | DEDMSRKAKKFWKAETDGNPQKLKTLIDPNARAHVGDQDLHGRRKIVHWLKHFRDTMRQHWTRYSFDAHGNKVDNRFVVVLQTNGKPERRRNKLTLVFKNGRLVSMRDETKG | 0.128
42 | DEDMYEQYESILHNERTGNEDEWVENIDPNARIRVGDKEVHGMEDNAREKRRHQEEQRVHFDIKRYSIHNGELDVTAKMRRDVNGQPAQDDVKVRIVVENGRIKEQDQDFDEDDDRRQKK | -0.037
43 | DEDNAERVHTALDILERGNPEEVKKMFRDDVRATIGDTVIHGMTNFAHYMQRLMDHARVNITIRSWSVKNGRVEIDAEIHANHNGQPYHDRFKIKAEVTNGRFKYLQYDIDPDFLRDMTK | 1.25
44 | DEDNEKELQREIVRVLKHNDWERFTQLIDEDVRLEYGDQRYHGREQVSKHFTDLAQEVDSVEVTSVKAHNGKINITAILNHNGTNHRYNIRFEFRNGRLKVVRYDHT | 1.85
45 | DEDNHRKAKKLIDAENTGDPTQVRKLADPNVHVEYGDEHVHGRDEIANELSKKAKEIRFRVDRLSFSVHNGTFSATQRMKENDNGRPEEFRVERSMELHNGKFVSIVQKKKS | -0.071
46 | DEDNLRDAMEVYHQNDPDKAVKMADEDVKVVVGDRKWNGREDFEEAMRTFNQRVDHIEYKSMDVSNGQISIDVVINVDGQNARFILNIEIHNGKIKSLRYQWRNENVRQVLTEIFQ | 0.795
47 | DEDNMHRLKEFLDNLNQGDEERLVELADEDVKLVYGEKRYHGREELTKTLETQRDQMRVDYKVKSMSVSNGRVHADIEASNTKNGKPKRFKVRVHAEFHNGRLQVYNQQEDK | 0.42
48 | DEDNQREANRAAKTGDFKRMAEKADPNVSVTVGDKEVKGREEVHKFVQRFDDQVDDLDIKSFRVEGDKVHVQATAVFNGKKIEFSFSARIHNGKLTKMTVKVRDPRQQKKLQKQWE | 0.004
49 | DEDNQTQTAERVVEIMRTGDEHKMRNLADENVKIQIGDKKYRGRDEASKQAKELRDRVDRLRVVRFDVHGNKVRIVMQFKYNGVTVNFKFTVEIHNGRVKSMEMRYTNPEDLKRARS | 0.182
50 | DEDNTDRARKFFEALRTNDPDQVSSLLDPNARVHIGDRVINGREEVRTHIKHLTDKIRFQIQKVTVHVSNGRISAHVTFEVEVNGRPDRFNMEVVARVENGKIKVMQFKISEDQMQKLRN | 1.39
